B1: human glucagon like peptide-1 receptor (hGLP-1R): N63, 82, 115L (protein)
parent chain: MAGAPGPLRLALLLLGMVGRAGPRPQGATVSLWETVQKWREYRRQCQRSLTEDPPPATDLFCNRTFDEYACWPDGEPGSFVNVSCPWYLPWASSVPQGHVYRFCTAEGLWLQKDNSSLPWRDLSECEESKRGERSSPEEQLLFLYIIYTVGYALSFSALVIASAILLGFRHLHCTRNYIHLNLFASFILRALSVFIKDAALKWMYSTAAQQHQWDGLLSYQDSLSCRLVFLLMQYCVAANYYWLLVEGVYLYTLLAFSVLSEQWIFRLYVSIGWGVPLLFVVPWGIVKYLYEDEGCWTRNSNMNYWLIIRLPILFAIGVNFLIFVRVICIVVSKLKANLMCKTDIKCRLAKSTLTLIPLLGTHEVIFAFVMDEHARGTLRFIKLFTELSFTSFQGLMVAILYCFVNNEVQLEFRKSWERWRLEHLHIQRDSSMKPLKCPTSSLSSGATAGSSMYTATCQASCS
B2: human glucagon like peptide-1 receptor (hGLP-1R): tunicamycin (protein)
parent chain: MAGAPGPLRLALLLLGMVGRAGPRPQGATVSLWETVQKWREYRRQCQRSLTEDPPPATDLFCNRTFDEYACWPDGEPGSFVNVSCPWYLPWASSVPQGHVYRFCTAEGLWLQKDNSSLPWRDLSECEESKRGERSSPEEQLLFLYIIYTVGYALSFSALVIASAILLGFRHLHCTRNYIHLNLFASFILRALSVFIKDAALKWMYSTAAQQHQWDGLLSYQDSLSCRLVFLLMQYCVAANYYWLLVEGVYLYTLLAFSVLSEQWIFRLYVSIGWGVPLLFVVPWGIVKYLYEDEGCWTRNSNMNYWLIIRLPILFAIGVNFLIFVRVICIVVSKLKANLMCKTDIKCRLAKSTLTLIPLLGTHEVIFAFVMDEHARGTLRFIKLFTELSFTSFQGLMVAILYCFVNNEVQLEFRKSWERWRLEHLHIQRDSSMKPLKCPTSSLSSGATAGSSMYTATCQASCS

What was measured:
[1] = total lysate immunoblot, anti-GFP; conditions: glycan lost; control: SP-VSVG WT
[2] = confocal immunofluorescence, GFP and surface anti-hGLP-1R; conditions: glycan lost; control: SP-VSVG WT, untreated
[3] = cell surface ELISA, anti-hGLP-1R, unpermeabilised cells; conditions: glycan lost; control: SP-VSVG WT, untreated

Protein	expression_or_secretion [1]	localisation_or_trafficking [2]	localisation_or_trafficking, percent_of_wt [3]
B1	no change	abolishes	abolishes
B2	–	abolishes	abolishes
